In US20250388669A1 (published 2025):

B1: Ly2438 (bispecific antibody)
heavy 1: QVQLVQSGAEVKKPGASVKVSCKASGYTFTDFWMSWVRQAPGQGLEWMGQIYPNTGTTHSNEKFKGRVTMTRDTSTSTVYMELSSLRSEDTAVYYCARSYHISTTPNWFAYWGQGTLVTVSSASTKGPSVFPLAPSSKSTSGGTAALGCLVKDYFPEPVTVSWNSGALTSGVHTFPAVLQSSGLYSLSSVVTVPSSSLGTQTYICNVNHKPSNTKVDKKVEPKSCGGGGSGGGGSGGGGSGGGGSEVQLVESGGGLVQPGGSLRLSCAASGFTFTNYGLHWVRQAPGKGLEWVSSISPSGGVTYYRDSVKGRFTISRDNSKNTLYLQMNSLRAEDTAVYYCAKPFLGWGGANWIAHWGQGTLVTVSSGGGGSDKTHTCPPCPAPEAAGPSVFLFPPKPKDTLMISRTPEVTCVVVDVSHEDPEVKFNWYVDGVEVHNAKTKPREEQYNSTYRVVSVLTVLHQDWLNGKEYKCKVSNKALPAPIEKTISKAKGQPREPQVYTLPPSREEMTKNQVSLWCLVKGFYPSDIAVEWESNGQPENNYKTTPPVLDSDGSFFLYSKLTVDKSRWQQGNVFSCSVMHEALHNHYTQKSLSLSPG
heavy 2: QVQLVQSGAEVKKPGASVKVSCKASGYTFTDFWMSWVRQAPGQGLEWMGQIYPNTGTTHSNEKFKGRVTMTRDTSTSTVYMELSSLRSEDTAVYYCARSYHISTTPNWFAYWGQGTLVTVSSASTKGPSVFPLAPSSKSTSGGTAALGCLVKDYFPEPVTVSWNSGALTSGVHTFPAVLQSSGLYSLSSVVTVPSSSLGTQTYICNVNHKPSNTKVDKKVEPKSCGGGGSGGGGSGGGGSGGGGSDIQMTQSPSSLSASVGDRVTITCLASEDISNDLAWYQQKPGKAPKLLIYFVDRLLDGVPSRFSGSGSGTDFTLTISSLQPEDFATYYCQQSYKYPPTFGQGTKLEIKGGGGSDKTHTCPPCPAPEAAGPSVFLFPPKPKDTLMISRTPEVTCVVVDVSHEDPEVKFNWYVDGVEVHNAKTKPREEQYNSTYRVVSVLTVLHQDWLNGKEYKCKVSNKALPAPIEKTISKAKGQPREPQVYTLPPSREEMTKNQVSLSCAVKGFYPSDIAVEWESNGQPENNYKTTPPVLDSDGSFFLVSKLTVDKSRWQQGNVFSCSVMHEALHNRFTQKSLSLSPG
light: DIQMTQSPSSLSASVGDRVTITCKASQNVYKKLEWYQQKPGKVPKVLIYHTNILQTGVPSRFSGSGSGTDYTLTISSLQPEDVATYYCYQWNSGPTFGGGTKVEIKRTVAAPSVFIFPPSDEQLKSGTASVVCLLNNFYPREAKVQWKVDNALQSGNSQESVTEQDSKDSTYSLSSTLTLSKADYEKHKVYACEVTHQGLSSPVTKSFNRGEC
notes: PD-L1 Fabs (Ly076) x central CD40 Fv (TM559)
B2: Ly2444 (bispecific antibody, human IgG1, kappa)
heavy 1: QVQLVQSGAEVKKPGASVKVSCKASGYTFTDFWMSWVRQAPGQGLEWMGQIYPNTGTTHSNEKFKGRVTMTRDTSTSTVYMELSSLRSEDTAVYYCARSYHISTTPNWFAYWGQGTLVTVSSASTKGPSVFPLAPSSKSTSGGTAALGCLVKDYFPEPVTVSWNSGALTSGVHTFPAVLQSSGLYSLSSVVTVPSSSLGTQTYICNVNHKPSNTKVDKKVEPKSCDKTHTCPPCPAPEAAGPSVFLFPPKPKDTLMISRTPEVTCVVVDVSHEDPEVKFNWYVDGVEVHNAKTKPREEQYNSTYRVVSVLTVLHQDWLNGKEYKCKVSNKALPAPIEKTISKAKGQPREPQVYTLPPSREEMTKNQVSLWCLVKGFYPSDIAVEWESNGQPENNYKTTPPVLDSDGSFFLYSKLTVDKSRWQQGNVFSCSVMHEALHNHYTQKSLSLSPGGGGGSGGGGSGGGGSGGGGSEVQLVESGGGLVQPGGSLRLSCAASGFTFTNYGLHWVRQAPGKGLEWVSSISPSGGVTYYRDSVKGRFTISRDNSKNTLYLQMNSLRAEDTAVYYCAKPFLGWGGANWIAHWGQGTLVTVSS
heavy 2: QVQLVQSGAEVKKPGASVKVSCKASGYTFTDFWMSWVRQAPGQGLEWMGQIYPNTGTTHSNEKFKGRVTMTRDTSTSTVYMELSSLRSEDTAVYYCARSYHISTTPNWFAYWGQGTLVTVSSASTKGPSVFPLAPSSKSTSGGTAALGCLVKDYFPEPVTVSWNSGALTSGVHTFPAVLQSSGLYSLSSVVTVPSSSLGTQTYICNVNHKPSNTKVDKKVEPKSCDKTHTCPPCPAPEAAGPSVFLFPPKPKDTLMISRTPEVTCVVVDVSHEDPEVKFNWYVDGVEVHNAKTKPREEQYNSTYRVVSVLTVLHQDWLNGKEYKCKVSNKALPAPIEKTISKAKGQPREPQVYTLPPSREEMTKNQVSLSCAVKGFYPSDIAVEWESNGQPENNYKTTPPVLDSDGSFFLVSKLTVDKSRWQQGNVFSCSVMHEALHNRFTQKSLSLSPGGGGGSGGGGSGGGGSGGGGSDIQMTQSPSSLSASVGDRVTITCLASEDISNDLAWYQQKPGKAPKLLIYFVDRLLDGVPSRFSGSGSGTDFTLTISSLQPEDFATYYCQQSYKYPPTFGQGTKLEIK
light: B1 light
notes: PD-L1 Fabs (Ly076) x terminal CD40 Fv (TM559)
B3: Ly076 (antibody, V domains shown)
VH: QVQLVQSGAEVKKPGASVKVSCKASGYTFTDFWMSWVRQAPGQGLEWMGQIYPNTGTTHSNEKFKGRVTMTRDTSTSTVYMELSSLRSEDTAVYYCARSYHISTTPNWFAYWGQGTLVTVSS
VL: DIQMTQSPSSLSASVGDRVTITCKASQNVYKKLEWYQQKPGKVPKVLIYHTNILQTGVPSRFSGSGSGTDYTLTISSLQPEDVATYYCYQWNSGPTFGGGTKVEIK
notes: Parent mAb; also called Anti-PD-L1 Ly076; parent anti-PD-L1 antibody
B4: Ly076 (antibody, V domains shown)
VH: B3 VH
VL: B3 VL
notes: Parent mAb; also called parent anti-PD-L1 antibody
B5: Ly2396 (bispecific antibody, human IgG1, kappa)
heavy 1: QVTLKESGPALVKPTQTLTLTCTFSGFSLSTSGTCVSWIRQPPGKALEWLATICWEDSKGYNPSLKSRLTISKDTSKNQAVLTMTNMDPVDTATYYCARREDSGYFWFPYWGQGTLVTVSSASTKGPSVFPLAPSSKSTSGGTAALGCLVKDYFPEPVTVSWNSGALTSGVHTFPAVLQSSGLYSLSSVVTVPSSSLGTQTYICNVNHKPSNTKVDKKVEPKSCDKTHTCPPCPAPEAAGPSVFLFPPKPKDTLMISRTPEVTCVVVDVSHEDPEVKFNWYVDGVEVHNAKTKPREEQYNSTYRVVSVLTVLHQDWLNGKEYKCKVSNKALPAPIEKTISKAKGQPREPQVYTLPPSREEMTKNQVSLWCLVKGFYPSDIAVEWESNGQPENNYKTTPPVLDSDGSFFLYSKLTVDKSRWQQGNVFSCSVMHEALHNHYTQKSLSLSPGGGGGSGGGGSGGGGSGGGGSQVQLVQSGAEVKKPGASVKVSCKASGYTFAGFEMHWVRQAPGQGLEWMGAIDPKTGGTDYNQKFKDRVTMTRDTSISTAYMELSRLRSDDTAVYYCARDLGYFDVWGQGTLVTVSS
heavy 2: QVTLKESGPALVKPTQTLTLTCTFSGFSLSTSGTCVSWIRQPPGKALEWLATICWEDSKGYNPSLKSRLTISKDTSKNQAVLTMTNMDPVDTATYYCARREDSGYFWFPYWGQGTLVTVSSASTKGPSVFPLAPSSKSTSGGTAALGCLVKDYFPEPVTVSWNSGALTSGVHTFPAVLQSSGLYSLSSVVTVPSSSLGTQTYICNVNHKPSNTKVDKKVEPKSCDKTHTCPPCPAPEAAGPSVFLFPPKPKDTLMISRTPEVTCVVVDVSHEDPEVKFNWYVDGVEVHNAKTKPREEQYNSTYRVVSVLTVLHQDWLNGKEYKCKVSNKALPAPIEKTISKAKGQPREPQVYTLPPSREEMTKNQVSLSCAVKGFYPSDIAVEWESNGQPENNYKTTPPVLDSDGSFFLVSKLTVDKSRWQQGNVFSCSVMHEALHNRFTQKSLSLSPGGGGGSGGGGSGGGGSGGGGSDIQMTQSPSSLSASVGDRVTITCRASQDIRSNLNWYQQKPGGAVKLLIYYTSRLHSGVPSRFSGSGSGTDYTLTISSLQPEDFATYFCQQSEKLPRTFGGGTKVEIR
light: NIQMTQSPSSLSASVGDRVTITCKAGQNVNNYLAWYQQKPGKAPKVLIFNANSLQTGVPSRFSGSGSGTDFTLTISSLQPEDFATYYCQQYNSWPTFGGGTKVEIKRTVAAPSVFIFPPSDEQLKSGTASVVCLLNNFYPREAKVQWKVDNALQSGNSQESVTEQDSKDSTYSLSSTLTLSKADYEKHKVYACEVTHQGLSSPVTKSFNRGEC
notes: PD-1 Fabs (Ly516) x terminal CD137 Fv

Columns and labels:
[1] = target: PD-L1 (binding assay) (UniProt Q9NZQ7 19-238, limits assumed); experiment: FCM or ELISA, graded
Chain of PD-L1 (binding assay) (Q9NZQ7 19-238 limits assumed): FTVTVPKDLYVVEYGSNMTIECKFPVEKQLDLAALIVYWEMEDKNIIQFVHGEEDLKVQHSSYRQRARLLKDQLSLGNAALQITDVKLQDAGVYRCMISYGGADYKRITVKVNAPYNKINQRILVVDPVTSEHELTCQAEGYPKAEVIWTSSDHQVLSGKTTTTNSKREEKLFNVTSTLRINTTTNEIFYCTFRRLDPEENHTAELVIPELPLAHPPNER

[2] = target: CD40 (UniProt P25942 21-193, limits assumed); experiment: FCM or ELISA, graded
Chain of CD40 (P25942 21-193 limits assumed): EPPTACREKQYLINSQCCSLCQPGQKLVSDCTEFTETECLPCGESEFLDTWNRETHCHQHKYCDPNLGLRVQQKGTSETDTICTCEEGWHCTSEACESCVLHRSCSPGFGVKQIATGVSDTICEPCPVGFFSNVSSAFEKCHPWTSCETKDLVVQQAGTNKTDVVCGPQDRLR

[3] = target: T1, PD-L1 (human, UniProt Q9NZQ7 19-238, limits assumed); experiment: PD-L1 binding, FCM or ELISA
T1 construct: In the reporter assay it is on Raji cells expressing human PD-L1
T1 sequence (Q9NZQ7 19-238 limits assumed): as the sequence (Q9NZQ7 19-238 limits assumed) above

[4] = target: T2, PD-L1 (human, UniProt Q9NZQ7 19-238, limits assumed); experiment: PD-L1 binding (FIG. 14A; method not specified); reference antibody
T2 construct: The reporter assay used Raji cells expressing human PD-L1
T2 sequence (Q9NZQ7 19-238 limits assumed): as above

[5] = target: CD137 (binding assay) (UniProt Q07011 24-186, limits assumed); experiment: FCM or ELISA, graded
[6] = target: PD-1 (binding assay) (UniProt Q15116 25-167, limits assumed); experiment: FCM or ELISA, graded
Chain of PD-1 (binding assay) (Q15116 25-167 limits assumed): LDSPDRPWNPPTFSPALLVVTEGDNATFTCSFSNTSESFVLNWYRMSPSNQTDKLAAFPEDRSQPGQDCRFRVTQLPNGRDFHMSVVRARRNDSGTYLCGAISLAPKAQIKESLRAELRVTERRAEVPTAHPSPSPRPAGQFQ

Binder | binding result [1] | binding result [2] | also measured
B1 | binds | binds | 
B2 | binds | binds | 
B3 |  |  | binding result [3]: binds
B4 |  |  | binding result [4]: binds
B5 |  |  | binding result [5]: binds; binding result [6]: binds
